No end group written: not given here. *: point of attachment. Biotin = O=C1N[C@H]2[C@H](CS[C@H]2CCCCC(=O)*)N1
Experiments:
Assay in all cases: G assays, titrations or binding assays of peptides
INADL d3 = target: T1, INADL d3 (Homo sapiens, UniProt Q8NI35); conditions: peptide demonstrated to bind INADL d3 in G assays
T1 construct: made in house; host or cells: E. coli (DH5α, BL21 or JM109)
T1 sequence (Q8NI35 with tags, fused parts or gaps): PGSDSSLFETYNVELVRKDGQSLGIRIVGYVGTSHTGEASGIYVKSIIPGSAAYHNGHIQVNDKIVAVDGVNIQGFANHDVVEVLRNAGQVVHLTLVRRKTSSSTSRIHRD
Description: (§1) In one aspect, the invention provides an assay in which a GST/PDZ fusion protein is immobilized on a surface (G assay). […] In a preferred embodiment, the assay is carried out as follows:
(§2) (3) The binding of the biotinylated peptide to the GST/PDZ fusion protein surface can be detected using a variety of methods and detectors known to one of skill in the art. In one embodiment, 100 μl per well of 0.5 μg/ml streptavidin-horseradish peroxidase (HRP) conjugate dissolved in BSA/PBS is added and allowed to react for 20 minutes at 4° C. The plate is then washed 5 times with 50 mM Tris pH 8.0 containing 0.2% Tween 20, and developed by addition of 100 μl per well of HRP-substrate solution (TMB, Dako) for 20 minutes at room temperature (RT). The reaction of the HRP and its substrate is terminated by addition of 100 μl per well of 1 M sulfuric acid, and the optical density (O.D.) of each well of the plate is read at 450 um.
(§3) (4) Specific binding of a PL peptide and a PDZ domain polypeptide is determined by comparing the signal from the well(s) in which the PL peptide and PDZ domain polypeptide are combined, with the background signal(s). […] Typically a specific or selective reaction will be at least twice background signal, more typically more than 5 times background, and most typically 10 or more times the background signal. […] Correspondingly, a statistical test (e.g. a T-test) comparing repeated measurements of the signal with repeated measurements of the background will result in a p-value <0.05, more typically a p-value <0.01, and most typically a p-value <0.001 or less. As noted, in an embodiment of the G assay, the signal from binding of a given PL peptide to immobilized (surface bound) GST polypeptide alone is one suitable negative control (sometimes referred to as B1). Because all measurement are done in multiples (i.e. at least duplicate) the arithmetic mean (or, equivalently, average.) of several measurements is used in determining the binding, and the standard error of the mean is used in determining the probable error in the measurement of the binding. The standard error of the mean of N measurements equals the square root of the following: the sum of the squares of the difference between each measurement and the mean, divided by the product of (N) and (N−1). Thus, in one embodiment, specific binding of the PDZ protein to the platebound peptide is determined by comparing the mean signal (“mean S”) and standard error of the signal (“SE”) for a particular PL-PDZ combination with the mean B1.

PAR3 d3 = target: T2, PAR3 d3 (Homo sapiens, UniProt Q8TEW0, R682S); conditions: peptide demonstrated to bind PAR3 d3 in G assays
T2 construct: made in house; host or cells: E. coli (DH5α, BL21 or JM109)
Description: as §1, §2, §3

RIM2 d1 = target: T3, RIM2 d1 (Homo sapiens, UniProt Q9UQ26); conditions: peptide demonstrated to bind RIM2 d1 in G assays
T3 construct: made in house; host or cells: E. coli (DH5α, BL21 or JM109)
T3 sequence (Q9UQ26 632-757): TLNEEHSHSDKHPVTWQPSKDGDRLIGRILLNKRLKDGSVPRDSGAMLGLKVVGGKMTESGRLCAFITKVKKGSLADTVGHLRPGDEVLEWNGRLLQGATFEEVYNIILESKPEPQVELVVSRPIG
Description: as §1, §2, §3

Syntrophin 1 alpha d1 = target: T4, Syntrophin 1 alpha d1 (Homo sapiens, UniProt Q13424); conditions: peptide demonstrated to bind syntrophin 1 alpha d1 in G assays
T4 construct: made in house; host or cells: E. coli (DH5α, BL21 or JM109)
T4 sequence (Q13424 84-177): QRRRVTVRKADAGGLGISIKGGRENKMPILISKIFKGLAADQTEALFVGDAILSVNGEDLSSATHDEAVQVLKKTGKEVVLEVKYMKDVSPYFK
Description: In one aspect, the invention provides an assay in which a GST/PDZ fusion protein is immobilized on a surface (G assay). The binding of labeled PL peptide (e.g., as listed in TABLE 2 and TABLE 4) to this surface is then measured. In a preferred embodiment, the assay is carried out as follows:
(1) A PDZ-domain polypeptide is bound to a surface, e.g. a protein binding surface. In a preferred embodiment, a GST/PDZ fusion protein containing one or more PDZ domains is bound to a polystyrene 96-well plate. […] In one embodiment, the GST/PDZ fusion protein is bound via an anti-GST antibody that is coated onto the 96-well plate. Adequate binding to the plate can be achieved when: • a. 100 μl per well of 5 μg/ml goat anti-GST polyclonal antibody (Pierce) in PBS is added to a polystyrene 96-well plate (e.g., Nunc Polysorp) at 4° C. for 12 hours. • b. The plate is blocked by addition of 200 μl per well of PBS/BSA for 2 hours at 4° C. • c. The plate is washed 3 times with PBS. • d. 50 μl per well of 5 μg/ml GST/PDZ fusion protein) or, as a negative control, GST polypeptide alone (i.e. not a fusion protein) in PBS/BSA is added to the plate for 2 hours at 4° C. • e. the plate is again washed 3 times with PBS.
(2) Biotinylated PL peptides are allowed to react with the surface by addition of 50 μl per well of 20 μM solution of the biotinylated peptide in PBS/BSA for 10 minutes at 4° C., followed by an additional 20 minute incubation at 25° C. The plate is washed 3 times with ice cold PBS.
(3) The binding of the biotinylated peptide to the GST/PDZ fusion protein surface can be detected using a variety of methods and detectors known to one of skill in the art. In one embodiment, 100 μl per well of 0.5 μg/ml streptavidin-horseradish peroxidase (HRP) conjugate dissolved in BSA/PBS is added and allowed to react for 20 minutes at 4° C. The plate is then washed 5 times with 50 mM Tris pH 8.0 containing 0.2% Tween 20, and developed by addition of 100 μl per well of HRP-substrate solution (TMB, Dako) for 20 minutes at room temperature (RT). The reaction of the HRP and its substrate is terminated by addition of 100 μl per well of 1 M sulfuric acid, and the optical density (O.D.) of each well of the plate is read at […].
(4) Specific binding of a PL peptide and a PDZ domain polypeptide is determined by comparing the signal from the well(s) in which the PL peptide and PDZ domain polypeptide are combined, with the background signal(s). The background signal is the signal found in the negative control(s). Typically a specific or selective reaction will be at least twice background signal, more typically more than 5 times background, and most typically 10 or more times the background signal. In addition, a statistically significant reaction will involve multiple measurements of the reaction with the signal and the background differing by at least two standard errors, more typically four standard errors, and most typically six or more standard errors. Correspondingly, a statistical test (e.g. a T-test) comparing repeated measurements of the signal with repeated measurements of the background will result in a p-value <0.05, more typically a p-value <0.01, and most typically a p-value <0.001 or less. As noted, in an embodiment of the G assay, the signal from binding of a given PL peptide to immobilized (surface bound) GST polypeptide alone is one suitable negative control (sometimes referred to as B1). Because all measurement are done in multiples (i.e. at least duplicate) the arithmetic mean (or, equivalently, average.) of several measurements is used in determining the binding, and the standard error of the mean is used in determining the probable error in the measurement of the binding. The standard error of the mean of N measurements equals the square root of the following: the sum of the squares of the difference between each measurement and the mean, divided by the product of (N) and (N−1). […]

ZO-1 d2 = target: T5, ZO-1 d2 (Homo sapiens, UniProt Q07157, DEL264-264); conditions: peptide demonstrated to bind ZO-1 d2 in G assays
T5 construct: made in house; host or cells: E. coli (DH5α, BL21 or JM109)
T5 sequence (Q07157 with tags, fused parts or gaps DEL264-264): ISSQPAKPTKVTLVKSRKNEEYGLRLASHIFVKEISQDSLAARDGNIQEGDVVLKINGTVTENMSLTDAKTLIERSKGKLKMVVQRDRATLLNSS
Description: as §1, §2, §3

T2 sequence (Q8TEW0 with tags, fused parts or gaps R682S): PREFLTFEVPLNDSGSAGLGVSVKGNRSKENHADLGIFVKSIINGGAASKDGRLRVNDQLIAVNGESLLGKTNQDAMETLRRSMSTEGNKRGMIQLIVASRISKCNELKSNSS

Substance	POZ domain bound (INADL d3)	POZ domain bound (PAR3 d3)	POZ domain bound (RIM2 d1)	POZ domain bound (Syntrophin 1 alpha d1)	POZ domain bound (ZO-1 d2)
SSKSKSSEESQTFFGLYKL (Biotin-SSKSKSSEESQTFFGLYKL)	INADL D3	PAR3 D3	RIM2 D1	Syntrophin 1 alpha D1	ZO-1 D2
YGRKKRRQRRRKLSSIESDV (Biotin-YGRKKRRQRRRKLSSIESDV)	–	PAR3 D3	–	Syntrophin 1 alpha D1	ZO-1 D2
VPGALDYAAFSSALYGESDL (Biotin-VPGALDYAAFSSALYGESDL)	–	–	–	Syntrophin 1 alpha D1	–
TQGFPGPATWRRISSLESEV (Biotin-TQGFPGPATWRRISSLESEV)	INADL D3	–	–	Syntrophin 1 alpha D1	–
QISPGGLEPPSEKHFRETEV	–	–	–	Syntrophin 1 alpha D1	–
VHDAESSOEDGYDWGPATDL: peptide, SEQ ID NO:330 (Biotin-VHDAESSDEDGYDWGPATDL)	–	–	–	Syntrophin 1 alpha D1	–
HDFRRAFKKILARGDRKRIV (Biotin-HDFRRAFKKILARGDRKRIV)	INADL D3	PAR3 D3	RIM2 D1	Syntrophin 1 alpha D1	ZO-1 D2
YGRKKRRQRRRNDNIALLVQ	–	PAR3 D3	RIM2 D1	Syntrophin 1 alpha D1	ZO-1 D2
LAVLAYSITLVMLWSIWQYA (Biotin-LAVLAYSITLVMLWSIWQYA)	INADL D3	PAR3 D3	RIM2 D1	Syntrophin 1 alpha D1	ZO-1 D2
ILNSIQVMRAQMNQIQSVEV (Biotin-ILNSIQVMRAQMNQIQSVEV)	INADL D3	PAR3 D3	–	Syntrophin 1 alpha D1	ZO-1 D2
PYSELNYETSHYPASPDSWV (Biotin-PYSELNYETSHYPASPDSWV)	–	–	–	Syntrophin 1 alpha D1	–
TGSALQAWRHTSRQATESTV (Biotin-TGSALQAWRHTSRQATESTV)	–	–	–	Syntrophin 1 alpha D1	–
FNGSSNGHVYEKLSSIESDV (Biotin-FNGSSNGHVYEKLSSIESDV)	–	–	–	Syntrophin 1 alpha D1	–
AAGGRSARGGRLQGRRETAL	–	–	–	Syntrophin 1 alpha D1	–
HHLVAQRDIRQFQLQHWLAI (Biotin-HHLVAQRDIRQFQLQHWLAI)	INADL D3	PAR3 D3	RIM2 D1	Syntrophin 1 alpha D1	ZO-1 D2
AVGGRPARGGRLQGRRQTQV	–	–	–	Syntrophin 1 alpha D1	–
KKKKQPGNSTKESESTNSVRLML (Biotin-KKKKQPGNSTKESESTNSVRLML)	INADL D3	PAR3 D3	RIM2 D1	Syntrophin 1 alpha D1	ZO-1 D2
TFKGTPTAENPEYLGLDVPV (Biotin-TFKGTPTAENPEYLGLDVPV)	–	–	–	Syntrophin 1 alpha D1	–
RELVDRGEVRQFTLRHWLKV (Biotin-RELVDRGEVRQFTLRHWLKV)	INADL D3	PAR3 D3	RIM2 D1	Syntrophin 1 alpha D1	ZO-1 D2
PIPAGGCTFSGIFPTLTSPL (Biotin-PIPAGGCTFSGIFPTLTSPL)	INADL D3	PAR3 D3	–	Syntrophin 1 alpha D1	–
VHKVRNKFKAKCSLCRLYII (Biotin-VHKVRNKFKAKCSLCRLYII; cysteine pairing not given here)	INADL D3	PAR3 D3	RIM2 D1	Syntrophin 1 alpha D1	ZO-1 D2
DFRPSFKHILFRRARRGFRQ (Biotin-DFRPSFKHILFRRARRGFRQ)	INADL D3	PAR3 D3	RIM2 D1	Syntrophin 1 alpha D1	ZO-1 D2
GRWTGRAMSAWKPTRRETEV (Biotin-GRWTGRAMSAWKPTRRETEV)	INADL D3	–	–	Syntrophin 1 alpha D1	–
HSCCNRARQERLQRRRETQV (Biotin-HSCCNRARQERLQRRRETQV; cysteine pairing not given here)	INADL D3	PAR3 D3	–	Syntrophin 1 alpha D1	ZO-1 D2
QDFRRAFRRILARPWTQTAW (Biotin-QDFRRAFRRILARPWTQTAW)	INADL D3	PAR3 D3	RIM2 D1	Syntrophin 1 alpha D1	ZO-1 D2
DTLLLTENEGDKTEEQVSYV (Biotin-DTLLLTENEGDKTEEQVSYV)	–	PAR3 D3	–	Syntrophin 1 alpha D1	–

From patent US7858322B2, “Method of determining inhibition of binding to TRPM7 protein” (NoNo, Inc., priority 2003, dated 2010)
